Experimental data: the nanobody polyreactivity screen of Harvey et al. (2022)

Assay: yeast display, Sf9 membrane polyspecificity reagent, FACS + sequencing; frameworks hold sequencing errors
Procedure, shortened: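 Nanobodies from a synthetic yeast display library (Saccharomyces cerevisiae BJ5465), induced 36–48 hours with galactose, were stained 1 hour at 4 °C with 10% biotinylated, detergent-solubilized Sf9 membrane reagent, enriched on streptavidin microbeads, then FACS-sorted. Anti-HA (expression) and streptavidin (reagent binding) fluorescence set low and high (top ~1%) gates. Polyreactivity labels come from the gate of origin. Genes were colony-PCR amplified, MiSeq 2 × 250 sequenced and filtered by CDR length.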

| Sequence | polyreactivity (PSR sort gate) |
| --- | --- |
| QVQLVESGGGLVQAGGSLRLSCAASGSTFTPYAMGWYRQAPGKERELVAAISWSDDSTYYADSVKGRFTISRDNAKNTVYLQMNSLKPEDTAVYYCAASAYVDYGVYTYIMDYWGQGTQVTVSS | high polyreactivity |
| QVQLVESGGGLVQAGGSLRLSCAASGSTFSTNAMGWYRQAPGQERELVAAISSSSGRTYYADSVKGRFTISRDNAKNTVYLQMNSLKPEDTAVYYCAAANQGYRSGRKGVQRFDYWGQGTQVTVSS | high polyreactivity |
| QVQLVESGGGLVQAGGSLRLSCAASGFISDWYAMGWYRQAPGKERELVATIDWIGGSTYADSVKGRFTISRDNAKNTVYLQMNSLKPEDTAVYYCAADSYFIAWYGAHYAYDYWRQGTQVTVSS | low polyreactivity |
| EEELVESGGGLVQAGGSLRLSCAASGRTLAGYPMGWYRQAPGKERELVAAISSSGGSTYYADSVKGRFTISRDNAKNTVYLQMNSLKPEDTAVYYCNRYSSYIPYPYNYWGQGTQVTVSS | high polyreactivity |
| QVQLVESGGGLVQAGGSLRLSCAASGSILYPYAMGWYRQAPGKERELVAAIRSRGGSTYYADSVKGRFTISRDNAKNTGYLQMNSLKPEDTAVYYCAAGSTRARFDYWGQGTQVTVSS | high polyreactivity |
| QVQLHESGGGMVQAGGSLRLSSAASGIIFDNPNMGWYRLSPGKERELVATINSGATTNYADSVKGRFTISRDNEKNTVYLLMNSLIPEETAVYFCAVDLSPTYFYYWGQGTKVTVSS | high polyreactivity |
| QVQLVESGGGLVQAGGSLRLSCAASGFTFQYYAMGWYRQAPGKERELVAAISWSGGSTYYADSVKGRFTISRDNAKNTVYLQMNSLKPEDTAVYYCAAAPYTYPLGFDYWGQGTQVTVSS | high polyreactivity |
| QVQLVESGGGLVQAGGSLRLSCAASGRTFSYYAMRWYRQAPGKERELVAAITSGGSTYYADSVKGRFTISRDNAKNTVYLQMNSLKPEDTAVYYCAKYQSYGPVPFGRGYGHYYWGQGTQVTVSS | high polyreactivity |
| QVQLVESGGGLVQAGGSLRLSSAASGITYTPNAMGSYRQAPGKEREFVAAISVSGGSTYYADSVKGRFTISRDNAKYTVYLQMNSLKPEDTAVYYCATDFRRYAAKLYRYYYWGLGTQVTVSS | high polyreactivity |
| QVQLVESGGGLVQAGGSLRLSCAASGSIRHNTMGWYRQAPGKEREFVASISKRGGSTYYADSVKGRFTISRDNAKNTVYLQMNSLKPEYTAVYYCNAGAVTFVGRDYWGQGTQVTVSS | high polyreactivity |
| QVQLVESGGGLVQAGGSLRLSCAASGSIFTSYAMGWSRQAPGKERELVAAITSGGSTNYADSVKGRFTISRDNAKNTVYLQMNSLKPEDTAVYYCNAKWYWYLTRDAYRYRYTYDYWGQGTQVTVSS | low polyreactivity |
| QVQLVESGGGLVQAGGSLRLSCAASGRTFGVYAMGWYRQAPGKERELVATIRTTGSTNYADSVKGRFTISRDNAKYTVYLQMNSVKTEDTAVYYCAARLRQSKYYPYTTFTYDYWGQGTQVTVSS | high polyreactivity |
| HVQLVESGGGLVQAGGSLRLSCAASARIFVTYAMGWYREAPGKETELVAAISSRGGRTNYADSVKGRFTISRDNAQNTVYLQMNSLKPEYTAVYYFAARYWYIYNYDYWGQGTQVTVSS | high polyreactivity |
| QVHLVESGGGLVQAGGSLRLSCAAYGFIFYPYAMGWNRQEPGKERELVAAIDWNGGGTYYADSVKGRFTISRDNAKNTVYLQMNSLKPEDTAVYYCNTYGAYTFDYWGQGTQVTVSS | high polyreactivity |
| QVQLVESGGGLVQAGGSLRLSCAASGGIFSSYAMGWYRPAPGKERELVAAISSSSGSTYYADSVKGRFTISRDNAKNTVYLQMNSLKPEDTGVYYCAADSGHPDWYYYCGQGTQVTVSS | high polyreactivity |
| QVQLVESGGGLVQAGGSLRLSCAASGSIFTKYVMGWYRQAPGKERELVAAITYRGGSTYYADSVKGRFTISRDNAKNTVYLQMNSLKPEDTAVYDCAAEYYRYKYTAYRTDDYWGQGTQVTVSS | high polyreactivity |
| QVQLVESGGGLVQAGGSLRLSCAASGSIFTLYAMGWYRQAPGKERELVAAIDSGGNTNYADSVKGRFTISRDNAKNTVYLQMNSLKPEDTAVYYCAKRHATEFDYWGQGTQVTVSS | low polyreactivity |
| QVQLVESGGGLVQAGGSLRLSCAASGSTLDVYAMGWYRQAPGKERELVAAISWSVGSTYYADSVKGRFKISRDNAKNTVYLQMNSLKPEDTAVYYCAAEPYEYAYYGYDYWGQGTQVTVSS | high polyreactivity |
| QVQLVESGGGLVQAGGSLRLSCAASGRIFYSNAMGWYRQAPGKERELVATISTGGSTYAESVKGRFTISRDNAKNTVYLQLISLTPEESAVYYCAVDEWRWRVGAVAYYYWGQGTQVTVSS | low polyreactivity |
| QVQLVESGGGLVQAGGSLRLSCAASGYTFPFYTMGWYRQAPGKERELVAAISNSGTSTYYADSVKGRFTISRHNAKNTVYLQMNSLKPEDTAVYYSNAGRGTRFVYIDGMDYWGQGTQVTVSS | high polyreactivity |
| QVQLVESGGGLVQAGGSLRLSCAASGRIFKSYAMGWYRQAPGKERELVATISISGGSTYYADSVKGRFTISRDNEKNTVYLQMNSLKPEDNAVYYCNVDFPITEYYYWGNGTQVTVSS | low polyreactivity |
| QVQLVESGGGLVQAGGSLRLSCAASGRIFYSYAMGWYRQAPGKEWELVAVNTGGGRTYYADSVKGRFTISRDNAKNTVYLQMNSLKPEDTAVYYCAYRYGGTFRYDYWGQGTQVTVSS | high polyreactivity |

| Sequence | polyreactivity (PSR sort gate) |
| --- | --- |
| QVQLVESGGGLVQAGGSLRLICAASGRTFSSYAMGWYRQAPGKERELVAALSRRGGSTYYADSVKGRFTISRDNAKNTVYLQMNSLNPEDTAVYYCAADVYKQYGYYYWGQGTQVTVSS | high polyreactivity |
| QVQLHESGGGLEQEGGSLRLTCEASGNISPPADMGWYRQAPRKERELVASIGTGGTTNYADIVKARFTISRDNAKNTVYLQMNSLKPDDTSVYYWAAVRYEYNPYDYWGQGTQVTVSS | low polyreactivity |
| QVQLVESGGGLVQAGGSLRLSCAASGRIFGVYAMGWYRQAPGKERELVADISWSGSGTYADSVKGRFTISRDNAKNTVYLQMMSLKPEDTAVYYCNVDPAQIHAGYVGYDYWGQGTQVTVSS | low polyreactivity |
| QVQLVESGGGLVQAGGSLRLSCAASGRIFWYYAMGWYRQAPGKERELVATISYGGGNTYYADSVKGRFTISRDNAKNTVYLQMNSLKPEDTAVYDCARVPYAYLPYKPFQQYSYDYWGQGTQVTVSS | high polyreactivity |
| QVQLVESGGGLVQEGGSLRLSCAASGGTFYAYTMGWYRPAPGTERELVAAISRSGGSTYYADSVKGRITISRDTAKNSVYLQINSLKPEDTAVYYCAAVESGADYYYWGQGTQVTVSS | high polyreactivity |
| QVQLVESGGGLVQAGGSLRLSCAASGRIFRWYAMGWYRQAPGKERELVASISRGGSTYYADSVKGRFTISRDNAKNTVYLQMNSLKPEDTAVYYCNVKYKYDRAYGEYDYWGQGTQVTVSS | high polyreactivity |
| QVQLVESGGGLVQAGGSLRLSCAASGIIFYVYAMGWYRQAPGKERELVAAISSSGGSTNYADSVKGRFTISRDNAKNTVYLQMNSLKPEDTAVYFCAAKWRTRGHTSARGYWGQGTQVTVSS | high polyreactivity |
| QVQLVESGGGLVQAGGSLRLSCAASGRTFRSDNAMGWYRQAPGKERELVAAISQGGGTYYADSVKGRFTISRDNAKNTVYLQMNSLKPEDTAVSYCARDAYYADPSLWYYTYDYWGQCTQVTVSS | low polyreactivity |
| QVQLVESGGGLVQAGGSLRLSCAASGSTFTTHVMGWYRQAPGKERELVAAISWSSGSTYYADSVKGRFTISRDNEKNTVYLQMNSLKPEDTAVYYCDARLVIFYPYSRYYFWGQGTQVTVSS | high polyreactivity |
| QVQLVESGGGLVQAGGSLRLSCAASGRTFVTNAMGWYRQAPGKETELVAAISGTGGSTYYADSVKGRFTISRDNAKNTVYLQMNSLKPEDTAVYYCAAQKWRRGRYRDTAGPLFAYDYWGQGTQVTVSS | low polyreactivity |
| QVQLVESGGGLVQAGGSLRLSCAASGSIFVKYAMGWYRQAPGKERELVASITGRGGSTYYADSVKGRFTISRDNAKNTVYLQMNSLKPEDTAVYYCAARVASRHGWHNYWGQGSQVTVSS | high polyreactivity |
| QVQLVESGGGLVQAGGSLRLSCAASGRNFPYYAMGWYRQAPGKERELVATISSGGITNYADSVKGRFTISRDNAKNTVYLELNSLKPEDTAVYYCAADRHWSAGLWRYDYWGQGTQVTVSS | high polyreactivity |
| QVQLVESGGGLVQAGGSLRLSCAASGRIFGYYTMGWYRQAPGKEREFVASISTTGGSTYYADSVKGRFTISRDNAKNTVYLQMNSLKPEDTAVYYCNVYYWYGSRGSYALGKEYDYWGQGTQVTVSS | high polyreactivity |
| QFQLVESGGGLVQAGGSLRLSCAASGRIFCSYAMGWYIQAPGKERELVAAITSGGSTNYADSVKARFTISRDNAKNTVYLLMNSLKQEDTAVYYCADVEYLRESDYWGQGTQVTVSS | low polyreactivity |
| QVQIVESGGGLVQAGGSLRLSCAASGRILWDYAMGWYRQATGKEWELVAAIDWSAGSTYYADSVKGRFTISRDTAKNTVYLQMNSLKPEDTAVYYCYIDYTYYYEDDFWGQGTQVTVSS | low polyreactivity |
| QVQLVESGGGLVQAGGSLRLSCAACGRTFRGYAMGWYRQAPGKERELVAAITSGGSTYYADSVKGRFTISRDNAKNTDFLEMNSLKPEDTAVYYCNKLYYSGKPRFRYDYWGQGTQVTVSS | high polyreactivity |
| QVQLVESGGGLVQAGGSLRLSCAASGFIFPNKAMGWYRQAPGKERELVARISYGGGDTHYADSVKGRFTISRDNAKNTVYLQMNSLKPEDTAVYYCSYYYWGQGTQVTVSS | low polyreactivity |
| QVQLVESGGGLVQAGGSLPLSCAASGIIFPYNAMGWSRQAPGKERELVAAITGGGSTYYADSVKGRFTISRDNAKNTVYLPMNSLKPEDSAVYYCAADGSGPGYDYWGQGTQVTVSS | low polyreactivity |
| QVQLVESGGGLVQAGGSLRLSCAASGRIFFYNGMGWYRQAPGKERELVAAINRSGGSTYYADSVKGRFTISRDNAKNTVYLQMNSLKPVDTAVYYCNAASFTVPMDFWGQGTQVTVSS | low polyreactivity |
| QVQLVESGGGLVQAGGSLRLSCAASGQKFEYNAMVWYRQAPRKERELVAVITYTYYADSVKGRFTISRDNAKNTVYLLMNCLKPEATAVYYCAVLYSEEILRNDNGVRFDYWGQGTQVTVSS | low polyreactivity |
| QVQLVESGGGLVQAGGSLRLSCAASGFTFRYYAMGWYRQAPGKEREFVAAIRRSGANTYYADSVKGRFTISRDNAKNTVYLQMNSLKPEDTAVYYCGTRLRGSGRLYNYWGQGTQVTVSS | high polyreactivity |
